Values belong to the substance of their own block, whether it stands above or below them.
Key:
Test in all cases: cell-based or functional assay
[1] = target: human GFRAL and human RET on HEK293 cells (human) (UniProt Q6UXV0)
[2] = target: IL-2 receptor-dimer pair of the PathHunter IL-2 BioAssay cells
[3] = target: human CNTF receptor (CNTFR) on IMR-32 cells (human) (UniProt P26992)
[4] = target: human ErbB4 receptor (NCBI Ref. Seq. No. NP_001036064.1) (human) (UniProt Q15303)

Sequence of human CNTF receptor (CNTFR) on IMR-32 cells (human) (P26992 23-342): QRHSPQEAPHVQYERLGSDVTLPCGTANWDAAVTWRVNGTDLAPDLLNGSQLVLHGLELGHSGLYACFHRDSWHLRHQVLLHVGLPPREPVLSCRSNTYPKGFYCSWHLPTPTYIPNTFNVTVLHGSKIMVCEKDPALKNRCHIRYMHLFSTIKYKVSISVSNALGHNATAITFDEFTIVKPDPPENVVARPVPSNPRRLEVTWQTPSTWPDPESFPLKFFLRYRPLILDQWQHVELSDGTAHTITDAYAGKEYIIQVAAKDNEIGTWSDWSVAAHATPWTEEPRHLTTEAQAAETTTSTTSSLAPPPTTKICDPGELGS

hGFRAL/RET EC50 (pM), p-ERK1/2 AlphaLISA [1]: 2.85 pM
Substance: Human GDF15 (from UniProt Q99988 197-308) (ligand)

EC50 (nM), PathHunter IL-2 BioAssay [2]: 0.13 nM
Substance: Human IL-2 (reference standard of the PathHunter IL-2 BioAssay Kit) (from UniProt P60568 21-153) (ligand)

hCNTFR EC50 pM GeoMean (pSTAT3 in IMR-32 cells) [3]: 3.5 pM
Substance: human CNTF (R&D Systems; Cat #257-NT-010) (from UniProt P26441 2-200) (ligand)

EC50 (ng/mL), PathHunter ErbB4/ErbB4 dimerization assay [4]: 16.5 ng/mL
Substance: rhNRG-1 (eurofins cat #92-1091) (from UniProt Q02297 177-241) (ligand)
